Columns and labels:
[1] = target: T1, mjCgi121;mjBud32;mjKae1;pfPcc1 (Methanocaldococcus jannaschii;Methanocaldococcus jannaschii;Methanocaldococcus jannaschii;Pyrococcus furiosus) (UniProt Q57646+Q58530+Q58530+Q9V1Z9); assay: fluorescence polarization; details: 20 mM HEPES pH 7.5, 100 mM NaCl, 2 mM DTT; filter binding 50 nM 32P-tRNA, 1 h, room temperature; FP 50 nM 647-CCA; NMR 25 C with 10% D2O
T1 sequence 1: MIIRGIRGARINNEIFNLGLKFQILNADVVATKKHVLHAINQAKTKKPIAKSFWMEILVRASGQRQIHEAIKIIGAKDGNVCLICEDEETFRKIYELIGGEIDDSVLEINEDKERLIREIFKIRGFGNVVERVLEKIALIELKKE
T1 sequence 2: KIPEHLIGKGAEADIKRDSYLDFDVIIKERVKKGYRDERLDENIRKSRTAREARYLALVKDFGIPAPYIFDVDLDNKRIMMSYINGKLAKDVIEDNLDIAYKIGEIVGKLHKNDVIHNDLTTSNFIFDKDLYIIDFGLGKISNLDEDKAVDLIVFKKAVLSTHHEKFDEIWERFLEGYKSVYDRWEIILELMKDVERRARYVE
T1 sequence 3: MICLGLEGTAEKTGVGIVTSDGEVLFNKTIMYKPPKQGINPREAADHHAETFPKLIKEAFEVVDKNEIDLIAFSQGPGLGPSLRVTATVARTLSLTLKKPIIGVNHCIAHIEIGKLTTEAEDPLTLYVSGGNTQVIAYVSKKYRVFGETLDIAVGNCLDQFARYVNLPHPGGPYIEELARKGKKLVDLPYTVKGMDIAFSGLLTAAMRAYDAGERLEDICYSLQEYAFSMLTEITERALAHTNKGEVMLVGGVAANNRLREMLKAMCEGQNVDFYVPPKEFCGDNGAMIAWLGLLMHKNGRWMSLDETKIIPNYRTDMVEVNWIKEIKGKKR
T1 sequence 4: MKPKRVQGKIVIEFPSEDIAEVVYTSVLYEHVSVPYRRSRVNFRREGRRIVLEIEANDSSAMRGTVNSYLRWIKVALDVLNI

[2] = target: mjCgi121;mjBud32 R60E (Methanocaldococcus jannaschii;Methanocaldococcus jannaschii) (UniProt Q57646); assay: competition; details: displacement of 647-CCA (FP), 0.8 uM protein; 20 mM HEPES pH 7.5, 100 mM NaCl, 2 mM DTT; filter binding 50 nM 32P-tRNA, 1 h, room temperature; FP 50 nM 647-CCA; NMR 25 C with 10% D2O
[3] = target: T2, mjCgi121;mjBud32 (Methanocaldococcus jannaschii;Methanocaldococcus jannaschii) (UniProt Q57646+Q58530); assay: competition; details: displacement of 647-CCA (FP), 0.8 uM protein; 20 mM HEPES pH 7.5, 100 mM NaCl, 2 mM DTT; filter binding 50 nM 32P-tRNA, 1 h, room temperature; FP 50 nM 647-CCA; NMR 25 C with 10% D2O
T2 sequence 1: T1 sequence 1
T2 sequence 2: T1 sequence 2

[4] = target: mjCgi121;mjBud32 E152R (Methanocaldococcus jannaschii;Methanocaldococcus jannaschii) (UniProt Q57646); assay: competition; details: displacement of 647-CCA (FP), 0.8 uM protein; 20 mM HEPES pH 7.5, 100 mM NaCl, 2 mM DTT; filter binding 50 nM 32P-tRNA, 1 h, room temperature; FP 50 nM 647-CCA; NMR 25 C with 10% D2O
[5] = target: T3, mjCgi121 (Methanocaldococcus jannaschii) (UniProt Q57646); assay: competition; details: displacement of 647-CCA (FP); 20 mM HEPES pH 7.5, 100 mM NaCl, 2 mM DTT; filter binding 50 nM 32P-tRNA, 1 h, room temperature; FP 50 nM 647-CCA; NMR 25 C with 10% D2O
T3 sequence: T1 sequence 1

CCGCCA [647-CCA]
Kd [1]: 263 nM

mjtRNALysUUU
IC50 [2]: 7600 nM
IC50 [3]: 1200 nM
IC50 [4]: 600 nM

mjtRNAValCAC
binding signal (fold less efficient than mjtRNALys) [5]: 7.3

Reference: paper PMC7718258
